Laboratory results as given in the supplement of paper PMC7125110.
± gives the standard error. For part of these data: Fewer inactive variants are shown than the library holds.

B1: glmS ribozyme (parent)
chain: AUAAAAGCGCCAGAACUACAGAAAUGUAGUUGACGAGGAGGAGGUUUAUCGAAUUUUCGGCGGAUGCCUCCAAA

How the values were obtained:
Conditions in all cases: with glucosamine-6-phosphate
[1] = variants of: B1; assay: kcat; higher = faster cleavage; RNA array
Summary of the method: (§1)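 In situ transcription by E. coli RNA polymerase produced barcoded ribozyme variants on sequenced MiSeq chips, and a hybridised Cy3 probe tracked them at 37 °C. Glucosamine-6-phosphate was flowed in at 40 μM to 10 mM in HEPES/KCl/Mg(OAc)2 buffer. kcat and KM were taken from weighted Michaelis–Menten fits of kobs values from exponential decay fits.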

[2] = variants of: B1; assay: KM; higher = weaker cofactor use; RNA array
Summary of the method: as §1

[3] = variants of: B1; assay: self-cleavage kobs at 40 uM GlcN6P; higher = faster cleavage; RNA array
Summary of the method: as §1

[4] = variants of: B1; assay: self-cleavage kobs at 640 uM GlcN6P; higher = faster cleavage; RNA array
Summary of the method: as §1

[5] = variants of: B1; assay: self-cleavage kobs at 2500 uM GlcN6P; higher = faster cleavage; RNA array
Summary of the method: as §1

[6] = variants of: B1; assay: self-cleavage kobs at 10000 uM GlcN6P; higher = faster cleavage; RNA array
Summary of the method: as §1

[7] = variants of: B1; assay: self-cleavage kobs at 160 uM GlcN6P; higher = faster cleavage; RNA array
Summary of the method: as §1

Variant	kcat [1] [s⁻¹]	KM [2] [µM]	self-cleavage kobs at 40 uM GlcN6P [3] [s⁻¹]	self-cleavage kobs at 640 uM GlcN6P [4] [s⁻¹]	self-cleavage kobs at 2500 uM GlcN6P [5] [s⁻¹]	self-cleavage kobs at 10000 uM GlcN6P [6] [s⁻¹]	self-cleavage kobs at 160 uM GlcN6P [7] [s⁻¹]
U54A U65A	0.00834 ± 0.0013	4300 ± 1100	0.000105 ± 2.7e-05	0.00105 ± 0.00019	0.00254 ± 0.00097	0.00595 ± 0.00078	–
U46A U56A	0.001 ± 0.00013	1800 ± 490	–	0.000307 ± 7e-05	0.000533 ± 0.00015	0.000853 ± 0.00014	–
U46C U54G	0.00333 ± 0.00031	1370 ± 200	9.45e-05 ± 1.5e-05	0.000997 ± 0.00031	0.00284 ± 0.00085	0.00287 ± 0.0004	–
U46G A64C	1.9e-05 ± 5.9e-07	227 ± 47	< 1e-05	–	–	–	–
U45G C58G	6.11e-05 ± 9.3e-06	4730 ± 1900	–	–	–	4.17e-05 ± 1.1e-05	–
G44U C71U	0.000114 ± 4.5e-05	–	< 1e-05	–	9.61e-05 ± 1.4e-05	8.62e-05 ± 1.2e-05	–
U45G U54C	0.0089 ± 0.00053	1480 ± 160	0.000233 ± 5.4e-05	0.00308 ± 0.00078	0.00519 ± 0.00085	0.00798 ± 0.001	0.000851 ± 0.00024
U45C A48C	< 1e-05	–	–	–	–	–	< 1e-05
U46A C70U	0.004 ± 0.0017	–	0.000188 ± 3.1e-05	0.00135 ± 0.00019	0.00206 ± 0.00026	0.00626 ± 0.00087	0.000346 ± 5.5e-05
U47A G66U	0.00545 ± 0.0009	1780 ± 480	0.00013 ± 2.5e-05	0.00141 ± 0.00028	0.00244 ± 0.00069	0.00506 ± 0.00076	–
A48U C71U	0.000562 ± 8.4e-05	1890 ± 590	–	0.000153 ± 2.3e-05	0.000338 ± 5.6e-05	0.000461 ± 5.6e-05	–
C50G G51A G59U C70G	0.000102 ± 2.5e-05	–	–	0.000132 ± 2.9e-05	7.99e-05 ± 2e-05	–	9.16e-05 ± 3.2e-05
U45A U65G	0.00585 ± 0.001	4290 ± 1100	5.91e-05 ± 7.9e-06	0.000543 ± 0.00016	0.00235 ± 0.00063	0.00411 ± 0.00045	–
A53G A64U	0.000128 ± 1e-05	2590 ± 630	–	3.12e-05 ± 9.7e-06	5.65e-05 ± 1.1e-05	0.000103 ± 9.5e-06	–
A53G A64C	0.000207 ± 2.2e-05	1870 ± 470	–	5.95e-05 ± 9.6e-06	0.000109 ± 1.4e-05	0.000181 ± 1.9e-05	–
A48U U69C	0.000248 ± 8.5e-06	1640 ± 120	–	7.15e-05 ± 1e-05	0.000147 ± 1.8e-05	0.000215 ± 2.7e-05	–
U46C A48U	8.27e-05 ± 1.4e-05	–	–	–	6.44e-05 ± 1.3e-05	6.9e-05 ± 9e-06	–
G51U C58U	< 1e-05	–	–	–	–	< 1e-05	< 1e-05
U45A A52G	0.00326 ± 0.00073	2900 ± 900	5.17e-05 ± 1e-05	0.000699 ± 8.5e-05	0.00135 ± 0.00014	0.00293 ± 0.00044	0.000155 ± 2.1e-05
U46A G66A	0.000792 ± 5.9e-05	2830 ± 440	–	0.000156 ± 3.3e-05	0.000321 ± 8.6e-05	0.00063 ± 7.9e-05	–
U45G U55A	0.00686 ± 0.00089	1800 ± 330	0.000186 ± 4e-05	0.00187 ± 0.00028	0.00385 ± 0.00058	0.00606 ± 0.0012	0.000513 ± 7.7e-05
A52U G59A C68G	< 1e-05	–	–	–	–	–	–
U45A U69A	0.000153 ± 3.8e-05	–	5.69e-05 ± 1.3e-05	9.56e-05 ± 2.4e-05	0.000129 ± 3.7e-05	0.000167 ± 2.1e-05	–
A53C G66C	0.000476 ± 8.1e-05	2510 ± 780	–	9.27e-05 ± 1.9e-05	0.00034 ± 0.00011	0.000368 ± 6.5e-05	–
G44C U54G	0.000124 ± 1.2e-05	1200 ± 330	–	4.75e-05 ± 1.2e-05	7.38e-05 ± 1.6e-05	0.000118 ± 1.9e-05	–
A48U U57G	< 1e-05	–	< 1e-05	–	–	< 1e-05	< 1e-05
G44U A64G	0.000112 ± 2.4e-05	–	–	9.74e-05 ± 4.6e-05	5.94e-05 ± 1.4e-05	9.64e-05 ± 1.3e-05	–
G43C C67G	0.000698 ± 0.00015	2490 ± 1200	–	0.000186 ± 3.6e-05	0.000454 ± 0.0001	0.000541 ± 5.7e-05	–
A53C C70G	8.19e-05 ± 3.8e-06	438 ± 110	–	5.26e-05 ± 9.1e-06	6.51e-05 ± 9.9e-06	7.97e-05 ± 7.3e-06	–
C50A C70A	4.02e-05 ± 1.1e-05	–	–	3.8e-05 ± 1.3e-05	5.27e-05 ± 1e-05	–	3.47e-05 ± 1.5e-05
